From PMC3630167 come the findings set out here.

Where only a bound is given, the exact number is not on record here.

This assay has as its target purified native poly-γ-D-glutamic acid (γDPGA) from B. licheniformis strain 9945 (B. licheniformis). As to the kind of experiment: ELISA.
Substance “mAb F24F2 IgG2b subclass switch variant (antibody)” came in with a fold more mAb required for OD450 = 2.0 than with the IgG3 subclass of over 15 fold. In turn, “mAb F26G3 IgG2a subclass switch variant (antibody)” had a fold more mAb required for OD450 = 2.0 than with the IgG3 subclass of over 15 fold. For the substance “mAb F26G3 IgG2b subclass switch variant (antibody)”, the fold more mAb required for OD450 = 2.0 than with the IgG3 subclass was over 15 fold. Take “mAb F26G3 IgG1 subclass switch variant (antibody)”: the fold more mAb required for OD450 = 2.0 than with the IgG3 subclass is over 15 fold. Then “mAb F24F2 IgG1 subclass switch variant (antibody)”, with over 15 fold; and “mAb F24F2 IgG2a subclass switch variant (antibody)”, with over 15 fold.
